The experiment has as its target T1, human transferrin (human, UniProt P02787 20-698).
T1 construct: The assay paragraphs say only 'transferrin (Biogenesis)'; also called transferrin (Biogenesis); antigen
The experiment is described as follows: ELISA, transferrin-coated plate, silk gland extract, anti-mouse Ig-HRP detection. On the procedure:
Measurement of the activity of a recombinant antibody against an antigen by enzyme-linked immunosorbent assay (ELISA) was carried out by the following procedure. […] This was homogenized using a glass homogenizer and centrifuged at 14,000 rpm for 20 minutes, and then the supernatant was diluted five times (40 mg/ml) and ten times ([…]) in Tris buffer. These samples and the undiluted sample (original concentration: 200 mg/ml) were used as samples for ELISA measurement. Furthermore, similar procedures were used to prepare samples of the Ser1GAL4 strain silkworms for ELISA measurement as a negative control. 100 μl of the samples for ELISA measurement thus prepared were dispensed into a microtiter plate (NUNC) presensitized with 100 μg/well of transferrin (Biogenesis), and the plate was shaken at room temperature for two hours. Next, the ELISA measurement samples were removed from the wells, and the wells were washed three times with 200 μl of PBS-T. Into each well, 100 μl of a solution prepared in advance by diluting a rabbit anti-mouse Ig-HRP-labeled antibody 100-fold with PBS (150 mM NaCl, 10 mM phosphate buffer, pH 7.4) was dispensed, and the plate was shaken at room temperature for six hours. […] After that, the absorbance at 450 nm was measured using a model 550 microplate reader (BioRad).
(ELISA stands for enzyme-linked immunosorbent assay.)

T1 sequence (P02787 20-698 limits assumed): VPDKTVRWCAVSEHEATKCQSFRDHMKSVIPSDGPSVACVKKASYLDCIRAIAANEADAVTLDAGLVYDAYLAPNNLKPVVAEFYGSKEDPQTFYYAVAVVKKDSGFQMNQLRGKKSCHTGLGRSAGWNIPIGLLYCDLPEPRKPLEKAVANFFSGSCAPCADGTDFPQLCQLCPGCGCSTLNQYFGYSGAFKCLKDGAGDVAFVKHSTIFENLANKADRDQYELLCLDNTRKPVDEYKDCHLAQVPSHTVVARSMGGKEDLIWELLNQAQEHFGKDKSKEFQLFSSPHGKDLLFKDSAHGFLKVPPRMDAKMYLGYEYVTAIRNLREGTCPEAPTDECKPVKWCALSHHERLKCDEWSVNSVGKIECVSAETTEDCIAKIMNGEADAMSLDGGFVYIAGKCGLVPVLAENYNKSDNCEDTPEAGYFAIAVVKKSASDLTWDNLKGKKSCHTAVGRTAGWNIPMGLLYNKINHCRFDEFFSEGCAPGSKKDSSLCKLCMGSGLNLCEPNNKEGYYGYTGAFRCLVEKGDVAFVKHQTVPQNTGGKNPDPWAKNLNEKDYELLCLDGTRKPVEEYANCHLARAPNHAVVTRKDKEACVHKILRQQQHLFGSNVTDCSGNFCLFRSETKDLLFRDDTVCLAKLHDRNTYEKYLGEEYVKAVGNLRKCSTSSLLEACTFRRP

B1: scFv antibody from a mouse anti-human transferrin antibody (anti-transferrin scFv antibody) (scFv)
scFv: LEVQLQESGPDLVKPSQSLSLTCTVTGYSITSGYSWHWIRQFPENKLEWLGYIHSSGATNYSPSLKSRFSITRDTSKNQFFLQLNSVTTEDTATYYCARDGYSPPYAMDYWGQGTTVTVSSGGGGSGGGGSGGGGSDIELTQSPSSLAVSVGEKVTMTCKSSQSLLYSTNQKNYLAWYQQKPGQSPKLLIYWASTRESGVPDRFTGSGSGTDFTLTISSVKAEDLSVYYCQQYYSYPPTFGSGTKLEIK
notes: The signal piece is left out here as a secretion signal; Tested as a crude middle silk gland extract of Ser1GAL4/UASFvaTf silkworms, not purified; also called aTf; FvaTf
With B1, the binding result is given as “binds”.
